# Molecular target: T1, pancreatic lipase (Homo sapiens, UniProt P16233)
# T1 sequence (P16233 17-465): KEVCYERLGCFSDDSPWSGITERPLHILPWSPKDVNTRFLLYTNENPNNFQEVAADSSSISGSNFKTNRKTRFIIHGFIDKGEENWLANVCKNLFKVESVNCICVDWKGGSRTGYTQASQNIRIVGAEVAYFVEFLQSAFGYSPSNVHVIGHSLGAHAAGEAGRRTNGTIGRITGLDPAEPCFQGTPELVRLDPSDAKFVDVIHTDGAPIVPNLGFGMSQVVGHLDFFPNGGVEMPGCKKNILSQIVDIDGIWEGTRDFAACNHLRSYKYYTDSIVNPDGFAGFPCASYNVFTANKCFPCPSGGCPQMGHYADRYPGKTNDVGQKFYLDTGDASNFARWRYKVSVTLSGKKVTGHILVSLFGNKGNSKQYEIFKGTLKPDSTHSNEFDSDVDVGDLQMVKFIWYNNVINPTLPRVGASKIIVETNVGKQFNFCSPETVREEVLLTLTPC
# Experiment: Measurement of the lipase activity (pH stat, tributyrin)
# Format: biochemical
# Details: increasing amounts of membranes/proteins, lipase + colipase, pH 7.0, curves only in FIG. 1-3
# Procedure: The lipase activity was measured according to the following (Borgstrom B. and Erlanson C. European J. of Biochemistry 37: 60-68, 1973): 15 ml of an aqueous solution containing 1 mM Tris buffer pH 7.0, 1 mM calcium chloride, 150 mM sodium chloride, 4 mM sodiumtaurodeoxycholate, 0.5 μg lipase, 1 μg of colipase.
# To this mixture 0.5 ml of tributyrin is added together with increasing amounts of membranes and the released fatty acids measured using a pH stat.
substance,measurement,value
"transhydrogenase: isolated membrane protein, transhydrogenase prepared from E. coli",inhibition of pancreatic lipase,inhibition

# From patent publication US20140220070A1, “USE OF PLANT CELL MEMBRANE TREATMENT OF OBESITY” (Thylabisco AB, priority 2005, published 2014)
